Measurements from patent CN110563841A.

What was measured:
[1] = target: 重组Grb2蛋白 (recombinant Grb2 protein) (UniProt P62993); assay: ELISA, recombinant Grb2 coated, antibody 100 ng/mL, goat anti-human IgG Fc-HRP secondary
[2] = target: 重组Grb2蛋白 (recombinant Grb2 protein) (UniProt P62993); assay: ELISA, recombinant Grb2 coated, antibody 100 ng/mL, goat anti-mouse IgG Fc-HRP secondary (does not detect human IgG)

OD490 [1]: 0.073
OD490 [2]: 0.073
Substance: 人IgG1 (irrelevant human IgG1 control antibody)
